The nanobody polyreactivity screen of Harvey et al. (2022)

Test: yeast display, Sf9 membrane polyspecificity reagent, FACS + sequencing; frameworks hold sequencing errors
Outline: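 Genes from sorted yeast were amplified by colony PCR, read by MiSeq 2 × 250 sequencing and filtered on CDR length. These cells carried a synthetic nanobody library in Saccharomyces cerevisiae BJ5465 and were sorted by FACS into low and high (top ~1%) gates on anti-HA and streptavidin fluorescence. Polyreactivity is labelled according to the gate of origin.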

| Sequence | polyreactivity (PSR sort gate) |
| --- | --- |
| QVQLVESGGGLVQAGGSLRLSCADSGRTFYPNAMGWYRQAPGKERELVARIRQSGTSTYYADSVKGRFTISRDNAKNTVYLQMNSLKPEDTAVYYCAARYAVGYPPYRYYYWGQGTQVTVSS | high polyreactivity |
| QVQLVESGGGLVQAGGSLRLSCADSGRTFYPYVMGWYRQAPGKERELVADISWSGGRTYYADSVKGRFTISRDNAKNTVYLQMYSLKPEDTAVYYCCAGYRRRYNYWGQGTQVTVSS | high polyreactivity |
| QVQLVESGGGLVQAGGSLRLSCADSGRTFYRNAMGWYRQAPGKERELVAAITWSAGSTYYADSVKGRFTISRDNAKNTVYLQMNSLKPEDSAVYYCAKYPSKSYVPGDYWGQGTQVTVSS | low polyreactivity |
| QVQLVESGGGLVQAGGSLRLSCADSGRTLGYYAKGWYRQAPGKEREVVAAITSGGRTNYADSVKGRFTISRDNAKNTVYLQMNSLKPEDTAVYYCAAARYLSGGYEKYDYWGQGTQVTVSS | low polyreactivity |
| QVQLVESGGGLVQAGGSLRLSCADSGSIFDIYAMGWYRQAPGKERELVADISWSGGSTYYADSVKGRFTISRDNAKNTVYLQMNSLKPEDTAVYYCAADSSRRIGEDYWGQGTQVTVSS | low polyreactivity |
| QVQLVESGGGLVQAGGSLRLSCADSGSIFGSYATGWYRQAPGKERELVAAITYSGTSTYYADSVKGRFTISRDTAKNTVYLQMNRLKPEDTAVYYCAKRHWFQYRRPDLGRFDYWGQGTQVTVSS | high polyreactivity |
| QVQLVESGGGLVQAGGSLRLSCADSGSIFRIYAMGWYSQAPGKERELVAAITGRGGSTYYADSVKGRFTISRDNAKNTVYLQMNSLKPEDTAVYYCAAEERYAYRYDYWGQGTQVTVSS | high polyreactivity |
| QVQLVESGGGLVQAGGSLRLSCADSGSNFRTYVMGWYRQAPGNERDMVAAITNGISTNYADSVKGRFTISRDNAKNSVYLQMISMKPEDTAVYYCAAGFRSTYYTFRFGYWGQGTQVTVST | high polyreactivity |
| QVQLVESGGGLVQAGGSLRLSCADSGSTFAGNAMGWYRQAPGKERELVAAIVSSTGSTYYADSVKGRFTISRDNAKNTVYLQMNSLKPEDTAVYYCNKTSFLVKLDYWGQGTQVTVSS | low polyreactivity |
| QVQLVESGGGLVQAGGSLRLSCADSGSTFGKNAMGWYRQAPGKDRELVAAITRRGVSTNYADSEKGRFTISRDNAKNTVYLQMNSLKPEDTAVYYCARGSELGYYAWVYYLGQGTQVTVSS | high polyreactivity |
| QVQLVESGGGLVQAGGSLRLSCADSGSTFRRNVMGWYRQAPGKERELVASIRSGGTTNYADSVKGRFTISRDNAKNTVYLQMNSLKPEDTAVYYCAAARSRGYYRASAVVLYGYWGQGTQVTVSS | high polyreactivity |
| QVQLVESGGGLVQAGGSLRLSCADSGSTFRYYVMGWYRQAPGKERELVARITSAASTNYADSVKGRFTISRDNAKNTVYLQMNSLKPEDTAVYYCAARKYGSRYRLKYDYWGQGTQVTVSS | high polyreactivity |
| QVQLVESGGGLVQAGGSLRLSCADSGSTFVNYAMGWYRQAPGKERELVAAISSTGGSTYYADSVKGRFTISRDNAKNTVYLQMNSLKPEDTAVYYCAAYRYFKMGYWGQGTQVTVSS | high polyreactivity |
| QVQLVESGGGLVQAGGSLRLSCADSGSTFWPYAMGWYRQAPGKESEVVAAISSSGGSTYYADSVQGRFTISRDNAKNTVYLQMNSLKPEDTAVYYCNKDYHRPFGGGSKGDYWGQRTQVTVSS | low polyreactivity |
| QVQLVESGGGLVQAGGSLRLSCADSGTTVIFNAMGWYRQAPGKERELVGAISWRLGRTYYAYSVKGRFTISRDNAKNTVYLQMNSLTPEDTAVYYCARDYSRHKGDYWGQGTQVTVSS | low polyreactivity |
| QVQLVESGGGLVQAGGSLRLSCADSGYIFEVYAMGWYRPAPGKERELVAAIDYSDGTTYYADSVKGRFTISRDNAKNTVYLQMNSLKPEDTAVYYCAADFPGQHYDYWGQGTQVTVSS | low polyreactivity |
| QVQLVESGGGLVQAGGSLRLSCADSVFIFYLNAMGWYRQAPRKERELVATITNRGGSTYFADSVKGRFTISRDNAKNTVYLQMNSLKPEDTAVYYCAARTRERYSKPYFYRRFGYWGQGTQVTVSS | low polyreactivity |
| QVQLVESGGGLVQAGGSLRLSCADTGRIFTRYAMGWYRQAPGKERELVASIRSGGSTYYADSVKGRFTISRDNAKNTVYLQMNSLKPEDTAVYFCAKGTFDLHYRKRYNYWGQGTQVTVSS | low polyreactivity |
| QVQLVESGGGLVQAGGSLRLSCADYGYIFVGNAMGCYRQAPGKDRELVAAINSGGSTNYADSVKGRFTISRDNEKNTVYLQMNSLKPEDTAVYYCNAEAPRYNYGRMDYLGQGTQVTVSS | low polyreactivity |
| QVQLVESGGGLVQAGGSLRLSCAGSGFIFTDYAMGWYRQAPGKERELVATISWSGSSTYYADSVKGRFTISRDNAKNTVYLQMNSLKPEDTAVYYCAAEFWYTYPYLVDYWGQGTQVTVSS | low polyreactivity |
| QVQLVESGGGLVQAGGSLRLSCAGSGFILGYNAMGWYRQAPGKERELVAVIDSIGDGTYYADSVKGRFTISRDNAKNTVYLQMISLKPEDTAVYYCDVDDYYEMDYWGQGTQVTVSS | low polyreactivity |
| QVQLVESGGGLVQAGGSLRLSCAGSGFTFKWYAMGWYRQAPGKERELVAGISRGGTTNYADSVKGRFTISRDNAKNTVYLQLNSLKPEDTAVYYCAKTSYVSYRGLTYYYWGQGTQVTVSS | high polyreactivity |
| QVQLVESGGGLVQAGGSLRLSCAGSGIIFAWYAMGWYRQAPGKERELVAAITSGGGSTYYADSVKGRFTISRDNAKNTVYLQMNSLKPEDTAVYYCAADYQTIGWGYDYWGQGTQVTVSS | low polyreactivity |
| QVQLVESGGGLVQAGGSLRLSCAGSGIIFFPYAMGWYRPAPGKERELVASINISDSSTYYADSVKGRFTISRDNAKNTVYLQMNSLKPQDTAVYYCAADNRGDSWYWHGYWGQGTQVTVSS | low polyreactivity |
| QVQLVESGGGLVQAGGSLRLSCAGSGNIFVFYVMGWYRQAAGKERELVASISSTGNTYYADSVKGRFTISRDNAKNTVYLQMNSLKPEDTAVYYGAADSHQNVSGWLRWPRMDYWGQGTQVTVSS | low polyreactivity |
| QVQLVESGGGLVQAGGSLRLSCAGSGSIFGRYVVGWYRLAPGKEREFVAAITYSGSSTYYADSVKWRFTISRDNAKNTVYVQINSLKPEDTAVYYCNTYPRSYYWMGYWGQGTQVTVSS | high polyreactivity |
| QVQLVESGGGLVQAGGSLRLSCAGSGSIFPFYVMGWYRQAPGKEREFVATISSRGGSTYYADSVKGRFTISRDNAKNTVYLQMNSLKPEDTAVYYCAAGWYRTDWGQRLHTYYYWGQGTQVTVSS | high polyreactivity |
| QVQLVESGGGLVQAGGSLRLSCAGSGSNFDVYTMGWYRKAPGKERELVAAINTGGGSTYYADSVKGRFTISRDNAMNTVYLQMNSLKPEDTAVYYCAASVYHYGPLYYWRQGTQVTVSS | low polyreactivity |
| QVQLVESGGGLVQAGGSLRLSCAGSGSTFDGNAMGWYRQAPGKDRELVAAITSGGSTNYADSVKGRFTISRDNAKNTVYLQMNSLKPEDTAVYYCAADTVSFSILYDYWGQGTQVTVSS | low polyreactivity |
| QVQLVESGGGLVQAGGSLRLSCAGSGSTFWVNDMGWSRQAPGKERELVASITISTGATYYADSVKGRFTISRDTAKNTVYVQINSLKPEDTAVYYCNVEFENSGWKSFDYWGQGTQVTVSS | low polyreactivity |
